Measurements as given in article PMC8204342, “Dual arginine recognition of LRRK2 phosphorylated Rab GTPases” (Biophysical Journal, 2021).

B1: RILPL2-GFP WT, full length [human] / HA-Rab8a in MLi-2 treated cells (LRRK2 inhibited) [Homo sapiens (Human).] (parent)
chain 1: MEEPPVREEEEEEGEEDEERDEVGPEGALGKSPFQLTAEDVYDISYLLGRELMALGSDPRVTQLQFKVVRVLEMLEALVNEGSLALEELKMERDHLRKEVEGLRRQSPPASGEVNLGPNKMVVDLTDPNRPRFTLQELRDVLQERNKLKSQLLVVQEELQCYKSGLIPPREGPGGRREKDAVVTSAKNAGRNKEEKTIIKKLFFFRSGKQT
chain 2: MAKTYDYLFKLLLIGDSGVGKTCVLFRFSEDAFNSTFISTIGIDFKIRTIELDGKRIKLQIWDTAGQERFRTITTAYYRGAMGIMLVYDITNEKSFDNIRNWIRNIEEHASADVEKMILGNKCDVNDKRQVSKERGEKLALDYGIKFMETSAKANINVENAFFTLARDIKAKMDKKLEGNSPQGSNQGVKITPDQQKRSSFFRC

Variants of: B1
Assay: co-immunoprecipitation (GFP binder Sepharose) with LI-COR immunoblot quantification
Settings: with HA-Rab8a in MLi-2 treated cells (LRRK2 inhibited) [Homo sapiens (Human).]; HEK293 cells, Flag-LRRK2[Y1699C] + HA-Rab8a co-expressed; 500 nM MLi-2 for 90 min; parent: 0.11; read off a plot

Variant	ratio to parent
chain 1 MEEPPVREEEEEEGEEDEERDEVGPEGALGKSPFQLTAEDVYDISYLLGRELMALGSDPRVTQLQFKVVRVLEMLEALVNEGSLALEELKMERDHLRKEVEGLRRQSPPASGEVNLGPNKMVVDLTAPNRPRFTLQELRDVLQERNKLKSQLLVVQEELQCYKSGLIPPREGPGGRREKDAVVTSAKNAGRNKEEKTIIKKLFFFRSGKQT [chain 1 D127A]	0.13
chain 1 MEEPPVREEEEEEGEEDEERDEVGPEGALGKSPFQLTAEDVYDISYLLGRELMALGSDPRVTQLQFKVVRVLEMLEALVNEGSLALEELKMERDHLRKEVEGLRRQSPPASGEVNLGPNKMVVDLTNPNRPRFTLQELRDVLQERNKLKSQLLVVQEELQCYKSGLIPPREGPGGRREKDAVVTSAKNAGRNKEEKTIIKKLFFFRSGKQT [chain 1 D127N]	0.12
chain 1 MEEPPVREEEEEEGEEDEERDEVGPEGALGKSPFQLTAEDVYDISYLLGRELMALGSDPRVTQLQFKVVRVLEMLEALVNEGSLALEELKMERDHLRKEVEGLRRQSPPASGEVNLGPNKMVVNLTDPNRPRFTLQELRDVLQERNKLKSQLLVVQEELQCYKSGLIPPREGPGGRREKDAVVTSAKNAGRNKEEKTIIKKLFFFRSGKQT [chain 1 D124N]	0.09
chain 1 MEEPPVREEEEEEGEEDEERDEVGPEGALGKSPFQLTAEDVYDISYLLGRELMALGSDPRVTQLQFKVVRVLEMLEALVNEGSLALEELKMERDHLRKEVEGLRRQSPPASGEVNLGPNKMVVALTDPNRPRFTLQELRDVLQERNKLKSQLLVVQEELQCYKSGLIPPREGPGGRREKDAVVTSAKNAGRNKEEKTIIKKLFFFRSGKQT [chain 1 D124A]	0.06

Second part, the variant after the results:

ratio to parent	Variant
0.11	chain 1 MEEPPVREEEEEEGEEDEERDEVGPEGALGKSPFQLTAEDVYDISYLLGRELMALGSDPRVTQLQFKVVRVLEMLEALVNEGSLALEELKMERDHLRKEVEGLRRQSPPASGEVNLGPNKMVVDLTDANRPRFTLQELRDVLQERNKLKSQLLVVQEELQCYKSGLIPPREGPGGRREKDAVVTSAKNAGRNKEEKTIIKKLFFFRSGKQT [chain 1 P128A]
0.12	chain 1 MEEPPVREEEEEEGEEDEERDEVGPEGALGKSPFQLTAEDVYDISYLLGRELMALGSDPRVTQLQFKVVRVLEMLEALVNEGSLALEELKMERDHLRKEVEGLRRQSPPASGEVNLGPNKMVVDLADPNRPRFTLQELRDVLQERNKLKSQLLVVQEELQCYKSGLIPPREGPGGRREKDAVVTSAKNAGRNKEEKTIIKKLFFFRSGKQT [chain 1 T126A]
